Reference: PMC10397247
Values belong to the binder of their own block, whether it stands above or below them.

Columns and labels:
Experiment in all cases: two-hybrid library CCNG1;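 also: natural log of median RNA to DNA barcode read ratio; higher means stronger binding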
4H370-bN = biological target: T1, 4H370-bN
T1 chain: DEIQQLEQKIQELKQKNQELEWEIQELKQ

4H568-bN = biological target: T2, 4H568-bN
T2 chain: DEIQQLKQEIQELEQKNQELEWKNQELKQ

4H2610-bN = biological target: T3, 4H2610-bN
T3 chain: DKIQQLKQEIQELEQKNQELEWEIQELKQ

4H2697-bN = biological target: T4, 4H2697-bN
T4 chain: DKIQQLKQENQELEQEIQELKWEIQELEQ

4H331-bN = biological target: T5, 4H331-bN
T5 chain: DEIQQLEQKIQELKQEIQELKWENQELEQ

4H967-bN = biological target: T6, 4H967-bN
T6 chain: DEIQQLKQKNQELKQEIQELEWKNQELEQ

4H687-bN = biological target: T7, 4H687-bN
T7 chain: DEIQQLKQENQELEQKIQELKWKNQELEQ

4H2667-bN = biological target: T8, 4H2667-bN
T8 chain: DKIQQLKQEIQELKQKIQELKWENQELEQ

4H3606-bN = biological target: T9, 4H3606-bN
T9 chain: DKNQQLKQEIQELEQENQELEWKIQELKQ

4H797-bN = biological target: T10, 4H797-bN
T10 chain: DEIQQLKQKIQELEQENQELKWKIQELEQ

4H72-bN = biological target: T11, 4H72-bN
T11 chain: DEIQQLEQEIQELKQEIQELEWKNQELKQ

4H3782-bN = biological target: T12, 4H3782-bN
T12 chain: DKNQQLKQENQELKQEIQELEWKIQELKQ

4H3843-bN = biological target: T13, 4H3843-bN
T13 chain: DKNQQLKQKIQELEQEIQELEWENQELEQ

4H462-bN = biological target: T14, 4H462-bN
T14 chain: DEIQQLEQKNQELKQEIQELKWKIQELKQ

4H918-bN = biological target: T15, 4H918-bN
T15 chain: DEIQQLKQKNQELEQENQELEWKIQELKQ

4H883-bA = biological target: T16, 4H883-bA
T16 chain: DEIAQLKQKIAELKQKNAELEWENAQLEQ

4H953-bN = biological target: T17, 4H953-bN
T17 chain: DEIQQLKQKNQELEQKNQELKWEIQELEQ

4H607-bN = biological target: T18, 4H607-bN
T18 chain: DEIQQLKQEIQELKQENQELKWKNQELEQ

4H4001-bN = biological target: T19, 4H4001-bN
T19 chain: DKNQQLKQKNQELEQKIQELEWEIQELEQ

4H883-bN = biological target: T20, 4H883-bN
T20 chain: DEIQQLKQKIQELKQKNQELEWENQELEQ

4H3189-bN = biological target: T21, 4H3189-bN
T21 chain: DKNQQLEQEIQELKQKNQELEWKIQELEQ

P8mS = biological target: T22, P8mS
T22 chain: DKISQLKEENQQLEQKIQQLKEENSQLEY

P9mS = biological target: T23, P9mS
T23 chain: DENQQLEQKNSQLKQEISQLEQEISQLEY

P7mS = biological target: T24, P7mS
T24 chain: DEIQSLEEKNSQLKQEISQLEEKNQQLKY

P6mS = biological target: T25, P6mS
T25 chain: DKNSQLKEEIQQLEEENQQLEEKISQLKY

4H3628-bN = biological target: T26, 4H3628-bN
T26 chain: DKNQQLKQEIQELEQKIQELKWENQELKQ

4H626-bN = biological target: T27, 4H626-bN
T27 chain: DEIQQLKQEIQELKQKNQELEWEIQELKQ

4H3858-bN = biological target: T28, 4H3858-bN
T28 chain: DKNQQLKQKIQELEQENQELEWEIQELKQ

4H3162-bN = biological target: T29, 4H3162-bN
T29 chain: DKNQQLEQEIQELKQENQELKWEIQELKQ

4H3613-bN = biological target: T30, 4H3613-bN
T30 chain: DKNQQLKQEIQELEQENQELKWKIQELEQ

4H3974-bN = biological target: T31, 4H3974-bN
T31 chain: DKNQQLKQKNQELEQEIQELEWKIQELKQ

4H3277-bN = biological target: T32, 4H3277-bN
T32 chain: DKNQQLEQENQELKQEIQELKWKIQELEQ

4H3926-bN = biological target: T33, 4H3926-bN
T33 chain: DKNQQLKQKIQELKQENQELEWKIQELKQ

4H3298-bN = biological target: T34, 4H3298-bN
T34 chain: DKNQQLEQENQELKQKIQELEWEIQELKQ

4H1544-bN = biological target: T35, 4H1544-bN
T35 chain: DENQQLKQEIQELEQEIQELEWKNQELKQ

4H906-bN = biological target: T36, 4H906-bN
T36 chain: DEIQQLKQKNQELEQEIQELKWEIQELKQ

4H591-bN = biological target: T37, 4H591-bN
T37 chain: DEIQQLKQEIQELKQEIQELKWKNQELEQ

4H1710-bN = biological target: T38, 4H1710-bN
T38 chain: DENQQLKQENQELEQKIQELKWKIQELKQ

4H1899-bN = biological target: T39, 4H1899-bN
T39 chain: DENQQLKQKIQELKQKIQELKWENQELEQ

4H3497-bN = biological target: T40, 4H3497-bN
T40 chain: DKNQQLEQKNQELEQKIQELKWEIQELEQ

4H570-bN = biological target: T41, 4H570-bN
T41 chain: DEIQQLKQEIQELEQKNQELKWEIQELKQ

4H850-bN = biological target: T42, 4H850-bN
T42 chain: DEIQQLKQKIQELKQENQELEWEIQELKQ

4H1985-bN = biological target: T43, 4H1985-bN
T43 chain: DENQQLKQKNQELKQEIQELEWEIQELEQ

4H3175-bN = biological target: T44, 4H3175-bN
T44 chain: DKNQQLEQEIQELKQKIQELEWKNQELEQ

4H3462-bN = biological target: T45, 4H3462-bN
T45 chain: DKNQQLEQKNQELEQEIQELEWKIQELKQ

4H3817-bN = biological target: T46, 4H3817-bN
T46 chain: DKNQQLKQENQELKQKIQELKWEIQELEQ

4H3354-bN = biological target: T47, 4H3354-bN
T47 chain: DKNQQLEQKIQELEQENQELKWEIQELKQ

4H454-bN = biological target: T48, 4H454-bN
T48 chain: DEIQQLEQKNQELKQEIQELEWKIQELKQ

4H3185-bN = biological target: T49, 4H3185-bN
T49 chain: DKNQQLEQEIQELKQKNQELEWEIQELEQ

4H908-bN = biological target: T50, 4H908-bN
T50 chain: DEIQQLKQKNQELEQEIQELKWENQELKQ

4H2618-bN = biological target: T51, 4H2618-bN
T51 chain: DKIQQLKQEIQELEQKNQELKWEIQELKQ

4H754-bN = biological target: T52, 4H754-bN
T52 chain: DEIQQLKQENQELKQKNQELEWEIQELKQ

4H717-bN = biological target: T53, 4H717-bN
T53 chain: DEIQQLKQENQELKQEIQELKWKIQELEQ

4H2729-bN = biological target: T54, 4H2729-bN
T54 chain: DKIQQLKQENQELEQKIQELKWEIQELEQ

4H949-bN = biological target: T55, 4H949-bN
T55 chain: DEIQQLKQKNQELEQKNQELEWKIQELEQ

4H3427-bN = biological target: T56, 4H3427-bN
T56 chain: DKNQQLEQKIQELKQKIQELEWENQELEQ

4H3855-bN = biological target: T57, 4H3855-bN
T57 chain: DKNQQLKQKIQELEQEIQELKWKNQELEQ

4H3112-bN = biological target: T58, 4H3112-bN
T58 chain: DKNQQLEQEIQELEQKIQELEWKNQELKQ

4H338-bN = biological target: T59, 4H338-bN
T59 chain: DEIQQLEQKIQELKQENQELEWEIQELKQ

4H2576-bN = biological target: T60, 4H2576-bN
T60 chain: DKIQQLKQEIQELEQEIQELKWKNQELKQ

B3: 4H1544-bN (peptide)
chain: DENQQLKQEIQELEQEIQELEWKNQELKQ
interaction score (4H3628-bN): 0.019
interaction score (4H626-bN): -1.03
interaction score (4H3858-bN): -0.293
interaction score (4H3162-bN): -1.96
interaction score (4H3613-bN): -1.07
interaction score (4H3974-bN): -0.0151
interaction score (4H3277-bN): -0.11
interaction score (4H3926-bN): -0.652
interaction score (4H3298-bN): -0.192
interaction score (4H1544-bN): -2.02
interaction score (4H906-bN): -0.343
interaction score (4H591-bN): -0.583
interaction score (4H1710-bN): 1.41
interaction score (4H918-bN): -0.127
interaction score (4H1899-bN): 1.82
interaction score (4H3497-bN): 0.211
interaction score (4H570-bN): -0.108
interaction score (4H850-bN): 0.669
interaction score (4H1985-bN): -0.277
interaction score (4H3175-bN): 0.167
interaction score (4H3462-bN): 1.08
interaction score (4H3817-bN): -0.351

B4: 4H2576-bN (peptide)
chain: DKIQQLKQEIQELEQEIQELKWKNQELKQ
interaction score (4H370-bN): 0.65
interaction score (4H568-bN): -0.0699
interaction score (4H3354-bN): -1.26
interaction score (4H454-bN): -0.887
interaction score (4H2610-bN): -0.395
interaction score (4H3185-bN): 0.148
interaction score (4H908-bN): -0.577
interaction score (4H2697-bN): -0.235
interaction score (4H331-bN): 1.55
interaction score (4H967-bN): -1.08
interaction score (4H687-bN): -0.515
interaction score (4H2667-bN): 1.21
interaction score (4H3606-bN): -0.101
interaction score (4H797-bN): -2.07
interaction score (4H2618-bN): 0.876
interaction score (4H72-bN): 1.58
interaction score (4H3782-bN): -0.233
interaction score (4H3843-bN): -0.264
interaction score (4H754-bN): 0.456
interaction score (4H717-bN): -0.909
interaction score (4H2729-bN): 1.74
interaction score (4H462-bN): 0.0924
interaction score (4H918-bN): -1.21
interaction score (4H953-bN): -1.09
interaction score (4H949-bN): 0.288
interaction score (4H607-bN): -0.239
interaction score (4H3427-bN): -2.5
interaction score (4H3855-bN): 1.04
interaction score (4H4001-bN): 0.0889
interaction score (4H3112-bN): -0.405
interaction score (4H338-bN): 0.787
interaction score (4H883-bN): 1.47
interaction score (4H2576-bN): 1.12
interaction score (4H3189-bN): 0.118

Now from value to binder:

interaction score (4H370-bN): -2.72
interaction score (4H568-bN): -0.762
interaction score (4H2610-bN): 0.245
interaction score (4H2697-bN): -0.363
interaction score (4H331-bN): 0.616
interaction score (4H967-bN): -0.795
interaction score (4H687-bN): -1.82
interaction score (4H2667-bN): 0.011
interaction score (4H3606-bN): -1.38
interaction score (4H797-bN): -1.16
interaction score (4H72-bN): -1.85
interaction score (4H3782-bN): -1.11
interaction score (4H3843-bN): 0.0276
interaction score (4H462-bN): 1.63
interaction score (4H918-bN): -0.666
interaction score (4H883-bA): 0.288
interaction score (4H953-bN): -0.363
interaction score (4H607-bN): -0.966
interaction score (4H4001-bN): -0.736
interaction score (4H883-bN): -0.137
interaction score (4H3189-bN): -0.821
B1: 4H2610-bN (peptide)
chain: DKIQQLKQEIQELEQKNQELEWEIQELKQ

interaction score (P8mS): -0.784
interaction score (P9mS): -0.654
interaction score (P7mS): -2.21
interaction score (P6mS): -0.275
B2: P6mS (peptide)
chain: DKNSQLKEEIQQLEEENQQLEEKISQLKY
